IC50 and fold of 50% inhibition against ESS-HP (SEQ ID NO: 2) data for 1 molecule are collected here from patent publication US20100092994A1.

Square brackets hold non-standard residues; d marks the D form. Ends that are not written are not given here. Hyp = O=C(O)[C@@H]1C[C@@H](O)CN1

For assay [1], the target named is monoclonal antibody derived from clone 11A5 (Anti HP-FGA MAb Clone: 11A5; hybridoma FERM AP-21698). In words: competitive ELISA: free peptide prereacted with antibody supernatant, then added to the solid-phased oxidatively modified peptide. For orientation: In an ELISA, binding on a coated surface is turned into a signal by an enzyme label.
In assay [2] the target is monoclonal antibody derived from clone 11G7. The assay is described as above.
The target in assay [3] is monoclonal antibody derived from clone 11A5 (Anti HP-FGA MAb Clone: 11A5; hybridoma FERM AP-21698). In words: competitive ELISA; reference is the unmodified peptide ESS-HP (SEQ ID NO: 2).
Assay [4] has as its target monoclonal antibody derived from clone 11G7. Described as above.

B1: synthetic peptide ESS (SEQ ID NO: 4), ESSSHHP(OH)GIAEFPSR, oxidatively modified FGA partial peptide (peptide)
peptide: ESSSHH[Hyp]GIAEFPSR
One may read the IC50 as the midpoint of a concentration-inhibition curve. Consider B1, for which the IC50 in assay [1] and in assay [2] was 0.4 µg/mL each time. The fold of 50% inhibition against ESS-HP (SEQ ID NO: 2) in assay [3] and in assay [4] was more than 25 times each time.
